Key:
DDX42 [1] = target: T1, DDX42 (Homo sapiens, UniProt Q86XP3 1-938); experiment: ELISA; not detectable up to 200 nM DDX42; ELISA: 50 mM K2HPO4 pH 7.4, 100 mM KCl (or 100 mM LiCl), 3% BSA block, 0.1% Tween-20 washes; blocking at room temperature, DDX42 1 h; 50 nM biotin-oligo coating; oligos annealed in 10 mM Tris-HCl pH 7.4, 100 mM KCl; details: protein: commercial, tags: N-terminal GST, label: 5' biotin
T1 sequence: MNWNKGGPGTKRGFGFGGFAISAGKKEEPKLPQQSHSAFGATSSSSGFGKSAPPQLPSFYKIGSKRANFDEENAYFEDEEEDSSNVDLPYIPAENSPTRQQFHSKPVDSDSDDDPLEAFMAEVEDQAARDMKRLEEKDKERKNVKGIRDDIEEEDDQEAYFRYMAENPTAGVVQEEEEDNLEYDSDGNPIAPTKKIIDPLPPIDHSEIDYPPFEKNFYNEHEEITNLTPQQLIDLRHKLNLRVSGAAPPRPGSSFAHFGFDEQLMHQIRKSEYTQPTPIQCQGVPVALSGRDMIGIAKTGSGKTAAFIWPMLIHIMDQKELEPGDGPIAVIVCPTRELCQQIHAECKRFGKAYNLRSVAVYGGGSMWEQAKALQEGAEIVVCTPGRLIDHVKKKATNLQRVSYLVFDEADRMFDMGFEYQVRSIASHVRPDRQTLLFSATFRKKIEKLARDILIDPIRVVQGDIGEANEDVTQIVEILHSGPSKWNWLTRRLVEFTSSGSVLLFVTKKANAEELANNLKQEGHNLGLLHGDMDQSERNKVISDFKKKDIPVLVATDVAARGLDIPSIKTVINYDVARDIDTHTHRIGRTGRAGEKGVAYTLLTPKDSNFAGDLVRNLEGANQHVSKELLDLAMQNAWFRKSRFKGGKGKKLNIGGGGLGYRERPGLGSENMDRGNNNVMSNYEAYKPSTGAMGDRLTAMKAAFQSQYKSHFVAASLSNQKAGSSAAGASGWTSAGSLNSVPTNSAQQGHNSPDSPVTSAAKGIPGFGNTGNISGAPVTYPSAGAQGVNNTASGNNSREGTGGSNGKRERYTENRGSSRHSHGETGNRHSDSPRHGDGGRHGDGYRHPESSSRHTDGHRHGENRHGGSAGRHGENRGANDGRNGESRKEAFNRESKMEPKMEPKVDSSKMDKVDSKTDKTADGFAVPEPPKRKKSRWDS

DDX42 [2] = target: T1, DDX42; experiment: ELISA; 100 mM KCl; apparent Kd, above the 200 nM top concentration; ELISA: 50 mM K2HPO4 pH 7.4, 100 mM KCl (or 100 mM LiCl), 3% BSA block, 0.1% Tween-20 washes; blocking at room temperature, DDX42 1 h; 50 nM biotin-oligo coating; oligos annealed in 10 mM Tris-HCl pH 7.4, 100 mM KCl; details: protein: commercial; tags: N-terminal GST; label: 5' biotin; parallel G4 (CD verified)
DDX42 [3] = target: T1, DDX42; experiment: ELISA; 100 mM KCl; apparent Kd; ELISA: 50 mM K2HPO4 pH 7.4, 100 mM KCl (or 100 mM LiCl), 3% BSA block, 0.1% Tween-20 washes; blocking at room temperature, DDX42 1 h; 50 nM biotin-oligo coating; oligos annealed in 10 mM Tris-HCl pH 7.4, 100 mM KCl; details: protein: commercial; tags: N-terminal GST; label: 5' biotin; parallel G4 (CD verified)

ACAGGGCUCCGCGAUGGCGGAGCCCAA (structured_RNA) [Stem loop (RNA hairpin)]: no binding (DDX42 [1]; hairpin).

TGAGGGTGGGTAGGGTGGGTAA (structured_DNA) [Myc G4 (dG4)] gave a Kd (DDX42 [2]) of 0.233 ± 0.0235 µM.

UGUAGAAAGAGCAGAUCUAGAUG (ssRNA) [NRAS mut (rG4 mut)]: no binding (DDX42 [1]; no G4).

In the case of UGUGGGAGGGGCGGGUCUGGGUGC (structured_RNA) [NRAS G4 (rG4)], the Kd (DDX42 [3]) is reported as 0.0711 ± 0.0035 µM.
